Assay in all cases: two-hybrid library CCmax;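 also: natural log of median RNA to DNA barcode read ratio; higher means stronger binding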
In experiment [1] the target is T1, 4H993-AA.
T1 chain: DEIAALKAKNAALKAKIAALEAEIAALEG
Particulars: mean of both orientations.

The target of experiment [2] is T2, N5-AA.
T2 chain: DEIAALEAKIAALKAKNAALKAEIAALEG

The target in experiment [3] is T3, 4H717-AA.
T3 chain: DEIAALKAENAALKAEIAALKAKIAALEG
The following applies: mean of both orientations.

Experiment [4] deals with T4, 4H605-AA.
T4 chain: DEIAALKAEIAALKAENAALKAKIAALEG
Particulars: mean of both orientations.

Experiment [5] addresses T5, 4H678-AA.
T5 chain: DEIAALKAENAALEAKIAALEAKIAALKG
The following applies: mean of both orientations.

Experiment [6] has as its target T6, 4H794-AA.
T6 chain: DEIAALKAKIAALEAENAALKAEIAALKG
The following applies: mean of both orientations.

In experiment [7] the target is T7, 4H454-AA.
T7 chain: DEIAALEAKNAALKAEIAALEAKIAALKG

For experiment [8], the target named is T8, 4H780-AA.
T8 chain: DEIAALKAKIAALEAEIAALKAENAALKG
Particulars: mean of both orientations.

For experiment [9], the target named is T9, N6-AA.
T9 chain: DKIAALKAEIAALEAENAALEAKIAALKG
Particulars: mean of both orientations.

Experiment [10] deals with T10, 4H48-AA.
T10 chain: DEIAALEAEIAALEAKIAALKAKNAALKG

Experiment [11] deals with T11, 4H566-AA.
T11 chain: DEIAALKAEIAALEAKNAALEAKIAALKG
Particulars: mean of both orientations.

Experiment [12] addresses T12, 4H906-AA.
T12 chain: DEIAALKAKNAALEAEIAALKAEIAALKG
The following applies: mean of both orientations.

The target of experiment [13] is T13, 4H881-AA.
T13 chain: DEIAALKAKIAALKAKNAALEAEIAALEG
The following applies: mean of both orientations.

Experiment [14] deals with T14, 4H2505-AA.
T14 chain: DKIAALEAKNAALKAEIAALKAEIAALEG
The following applies: mean of both orientations.

In experiment [15] the target is T15, 4H1636-AA.
T15 chain: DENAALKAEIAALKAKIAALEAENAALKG
Particulars: mean of both orientations.

In experiment [16] the target is T16, 4H2078-AA.
T16 chain: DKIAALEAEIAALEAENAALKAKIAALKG
The following applies: mean of both orientations.

Experiment [17] deals with T17, 4H2754-AA.
T17 chain: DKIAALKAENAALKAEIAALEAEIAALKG
The following applies: mean of both orientations.

Experiment [18] addresses T18, 4H1552-AA.
T18 chain: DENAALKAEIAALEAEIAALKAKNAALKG
Particulars: mean of both orientations.

In experiment [19] the target is T19, 4H3112-AA.
T19 chain: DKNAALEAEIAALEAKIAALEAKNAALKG
The following applies: mean of both orientations.

In experiment [20] the target is T20, 4H2837-AA.
T20 chain: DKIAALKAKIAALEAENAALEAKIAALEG
The following applies: mean of both orientations.

Experiment [21] concerns the target T21, 4H3427-AA.
T21 chain: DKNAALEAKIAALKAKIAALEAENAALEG
The following applies: mean of both orientations.

In experiment [22] the target is T22, 4H3655-AA.
T22 chain: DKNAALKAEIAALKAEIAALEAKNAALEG
The following applies: mean of both orientations.

Experiment [23] concerns the target T23, 4H2729-AA.
T23 chain: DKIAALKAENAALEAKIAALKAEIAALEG
The following applies: mean of both orientations.

Experiment [24] concerns the target T24, 4H1842-AA.
T24 chain: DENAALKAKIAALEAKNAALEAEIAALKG

In experiment [25] the target is T25, 4H2883-AA.
T25 chain: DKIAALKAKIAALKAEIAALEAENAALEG

For experiment [26], the target named is T26, 4H1401-AA.
T26 chain: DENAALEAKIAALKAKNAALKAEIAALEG
The following applies: mean of both orientations.

Experiment [27] addresses T27, 4H429-AA.
T27 chain: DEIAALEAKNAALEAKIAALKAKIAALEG
Particulars: mean of both orientations.

Experiment [28] addresses T28, 4H1867-AA.
T28 chain: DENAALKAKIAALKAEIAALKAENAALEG
The following applies: mean of both orientations.

The target of experiment [29] is T29, 4H2277-AA.
T29 chain: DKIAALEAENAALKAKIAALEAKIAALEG
The following applies: mean of both orientations.

Experiment [30] deals with T30, 4H2165-AA.
T30 chain: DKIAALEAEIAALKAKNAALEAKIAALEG
Particulars: mean of both orientations.

Experiment [31] concerns the target T31, 4H3343-AA.
T31 chain: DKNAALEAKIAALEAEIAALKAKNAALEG
Particulars: mean of both orientations.

Experiment [32] addresses T32, 4H2466-AA.
T32 chain: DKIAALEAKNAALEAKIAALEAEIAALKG

In experiment [33] the target is T33, 4H3627-AA.
T33 chain: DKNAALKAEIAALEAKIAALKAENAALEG
The following applies: mean of both orientations.

In experiment [34] the target is T34, 4H2151-AA.
T34 chain: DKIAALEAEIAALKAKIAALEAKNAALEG
Particulars: mean of both orientations.

Experiment [35] has as its target T35, 4H2642-AA.
T35 chain: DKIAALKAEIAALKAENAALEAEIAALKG
The following applies: mean of both orientations.

Experiment [36] concerns the target T36, 4H335-AA.
T36 chain: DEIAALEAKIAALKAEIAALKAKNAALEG
The following applies: mean of both orientations.

For experiment [37], the target named is T37, 4H2393-AA.
T37 chain: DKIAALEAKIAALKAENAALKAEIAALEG
The following applies: mean of both orientations.

In experiment [38] the target is T38, 4H2944-AA.
T38 chain: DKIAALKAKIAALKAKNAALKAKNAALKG
Particulars: mean of both orientations.

For experiment [39], the target named is T39, 4H2617-AA.
T39 chain: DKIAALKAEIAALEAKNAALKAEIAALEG
The following applies: mean of both orientations.

Experiment [40] addresses T40, 4H342-AA.
T40 chain: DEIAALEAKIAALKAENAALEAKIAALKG
The following applies: mean of both orientations.

For experiment [41], the target named is T41, 4H1324-AA.
T41 chain: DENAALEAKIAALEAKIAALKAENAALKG

Experiment [42] addresses T42, 4H3844-AA.
T42 chain: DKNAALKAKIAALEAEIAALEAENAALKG
The following applies: mean of both orientations.

For experiment [43], the target named is T43, 4H3921-AA.
T43 chain: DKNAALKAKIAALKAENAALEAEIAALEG
The following applies: mean of both orientations.

For experiment [44], the target named is T44, 4H2575-AA.
T44 chain: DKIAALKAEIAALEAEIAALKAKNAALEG
Particulars: mean of both orientations.

Experiment [45] addresses T45, 4H234-AA.
T45 chain: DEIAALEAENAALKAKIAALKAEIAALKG
The following applies: mean of both orientations.

Experiment [46] concerns the target T46, 4H2949-AA.
T46 chain: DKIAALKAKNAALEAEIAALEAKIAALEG
The following applies: mean of both orientations.

The target of experiment [47] is T47, 4H317-AA.
T47 chain: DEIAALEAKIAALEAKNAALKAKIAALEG
Particulars: mean of both orientations.

The target of experiment [48] is T48, 4H2354-AA.
T48 chain: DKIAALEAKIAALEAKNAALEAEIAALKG
Particulars: mean of both orientations.

Experiment [49] concerns the target T49, 4H3606-AA.
T49 chain: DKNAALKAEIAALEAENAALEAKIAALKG
The following applies: mean of both orientations.

In experiment [50] the target is T50, 4H1352-AA.
T50 chain: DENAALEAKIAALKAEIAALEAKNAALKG
Particulars: mean of both orientations.

The target in experiment [51] is T51, 4H2190-AA.
T51 chain: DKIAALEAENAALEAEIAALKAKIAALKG
The following applies: mean of both orientations.

Where two headings read alike, the source gives them in different places.

Take DEIAALEAKNAALKAEIAALEAKIAALKG [4H454-AA]: the interaction score was 1.82 in [1]; 0.301 in experiment [2] (mean of both orientations); 0.898 in [3]; -1.24 in experiment [4]; 2.11 in experiment [5]; -0.535 in experiment [6]. Besides, the interaction score in [7] is 1.45; in experiment [8] it was -1.48; in experiment [9] it was 1.89; in experiment [10] (mean of both orientations) it was -0.839; in experiment [11] it was 0.133; in experiment [12], 0.951. Further, the interaction score in experiment [13] came out at 0.451.

Regarding DEIAALEAEIAALEAKIAALKAKNAALKG [4H48-AA], the interaction score was 0.666 in experiment [1]; 0.994 in experiment [2] (mean of both orientations); -1.37 in [3]; -1.62 in experiment [4]; -0.779 in experiment [5]; -1.49 in [6]. Further, the interaction score is 1.34 in experiment [9]; 1.11 in experiment [10]; -0.519 in experiment [11]; -1.25 in experiment [12]; 0.161 in experiment [13].

On to DENAALEAKIAALEAKIAALKAENAALKG [4H1324-AA], for which the interaction score in experiment [1] was 1.28; in experiment [3], -1.26; in experiment [4], -1.44; in [14], -1.2; in experiment [15], -0.551; in experiment [16], 1.78. Also, the interaction score in experiment [17] was -1.3; in experiment [18] it was 1.17; in [19], 0.0224; in experiment [20] it was -1.14; in [21], 0.0395; in experiment [5] it was -1.52. Further, the interaction score in [22] was -0.51; in experiment [6] it was -1.34; in experiment [23], -1.35; in experiment [7] (mean of both orientations), -0.814; in [24] it was -1.92; in experiment [25] (mean of both orientations), 1.32. Also, the interaction score was -1.6 in experiment [26]; -1.18 in [27]; 0.462 in experiment [28]; 0.567 in experiment [8]; -1.35 in experiment [29]; -1.47 in [30]. The interaction score was 0.278 in experiment [31]; 1.07 in [10] (mean of both orientations); -1.2 in [32]; 0.372 in experiment [33]; -0.928 in [34]; -0.934 in experiment [35]. Moreover, the interaction score in experiment [36] was -0.376; in experiment [37] it was -0.744; in experiment [38], -1.01; in experiment [11] it was -1.31; in experiment [39], -0.287; in experiment [40] it was -1.05. Further, the interaction score in experiment [12] was -1.42; in experiment [41], 1.4; in [42], 2.11; in experiment [43] it was -1.15; in experiment [13], -1.69; in experiment [44] it was 0.676. Moreover, the interaction score in experiment [45] is -2.21; in experiment [46], -1.16; in [47] it was -1.41; in experiment [48], -1.59; in experiment [49], -1.02; in experiment [50], 0.674. This molecule showed an interaction score in experiment [51] of -1.14.

Regarding DEIAALEAKIAALKAKNAALKAEIAALEG [N5-AA], the interaction score in experiment [2] was -0.624; in [9], 2.28.

For the molecule DKIAALKAKIAALKAEIAALEAENAALEG [4H2883-AA], the interaction score in experiment [1] was -0.35; in experiment [2] (mean of both orientations), 0.696; in [3], -1.74; in [4], -1.31; in experiment [19] it was 1.39; in experiment [21], -0.335. For the same molecule, the interaction score in [5] was 0.155; in experiment [22] it was 0.159; in experiment [6], -1.54; in experiment [7] (mean of both orientations), -0.344; in experiment [25], 1.92; in experiment [27], -0.571. Further, the interaction score is -0.771 in experiment [31]; 1.03 in experiment [9]; 2.1 in experiment [10] (mean of both orientations); -0.102 in [33]; 0.034 in experiment [38]; 0.102 in [11]. Moreover, the interaction score in [40] was -0.29; in [12], -1.52; in experiment [42], 0.741; in experiment [13] it was -0.297; in experiment [46], 0.237; in experiment [47], -0.269. In experiment [49], this molecule yielded an interaction score of 0.716.

These data come from PMC10397247.
